Experiment [1] addresses ([H3.2]·[H3.2K4me3K27me3]) heterotypic nucleosome (UniProt Q71DI3). Nature of the experiment: Captify Luminex bead-based binding assay; GST-PtSHL titrated to a multiplex panel of PTM-defined homotypic and heterotypic nucleosomes; median fluorescence intensity; EC50^rel.
The target in experiment [2] is ([H3K4me3K27me3]2) homotypic nucleosome. The experiment is described as above.

This note sets out measurements from publication PMC12947556.

A value given as a limit tells only on which side of the number the result lay.

In the case of GST-PtSHL BAH-PHD (domain or fragment), in experiment [1], the fold preference over ([H3.2K4me3]·[H3.2K27me3]) or its comprising PTMs was above 350 fold. The substance also had a fold preference over nucleosomes with each comprising PTM in experiment [2] above 150 fold.
